“Also recorded” adds a separate entry of the source. Each block holds one substance with its values, some of them ahead of it.
Experiments:
[1] = system: leukocyte proteases including neutrophil elastase, trypsin, and insulin-degrading enzyme; test: Insulin degradation by leukocyte proteases (SDS-PAGE) +/- inhibitors; format: biochemical; settings: in vitro
Description: (§1) To characterize the ability of purified proteases or leukocyte extracts to degrade FITC-insulin in vitro we analyzed the impact of cell culture supernatants and cell lysates on insulin degradation using 10-20% SDS-PAGE gels. This was performed +/−anti-protease cocktails to characterize proteases responsible for insulin degradation. The functional activity of individual leukocyte proteases was analyzed using protease PAGE gels +/−protease inhibitors. This study clarifies the role of leukocytes in insulin therapy. (FIG. 13a, 13b, 13c and FIG. 14).

[2] = system: Triton X100 extract of human PMN; test: Insulin degradation by PMN extracts +/- inhibitors (PAGE); format: biochemical
Excerpt: (§2) In FIG. 53, I=insulin, T=Trypsin, E=Elastase, IDE-Insulin Degrading Enzyme, PMN=Triton X100 extract of human PMN, mwn=molecular weight marker.
(§3) In this example, we tested the ability of various anti-proteases to inhibit insulin degradation by leukocyte extracts and proteases.

[3] = system: Trypsin; test: Insulin degradation by trypsin +/- anti-proteases (PAGE); format: biochemical
Description: as §1, with “This study clarifies the role of leukocytes in insulin therapy.” left out
as §2, §3

[4] = target: T1, Elastase (Homo sapiens, UniProt P08246); test: Insulin degradation by elastase +/- anti-proteases (PAGE); format: biochemical
T1 sequence (P08246 30-267): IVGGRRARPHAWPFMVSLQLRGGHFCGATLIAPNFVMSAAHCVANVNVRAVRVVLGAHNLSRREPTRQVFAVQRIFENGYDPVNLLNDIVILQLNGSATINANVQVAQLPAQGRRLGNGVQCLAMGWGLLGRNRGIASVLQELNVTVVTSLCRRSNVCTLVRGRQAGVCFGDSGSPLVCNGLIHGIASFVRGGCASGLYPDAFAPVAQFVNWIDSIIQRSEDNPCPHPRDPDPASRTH
Description: as §1, with “This study clarifies the role of leukocytes in insulin therapy.” left out
as §2, §3

[5] = system: air pouch; test: Leukocyte influx into murine air pouch model (lavage cell count); settings: injection or infusion into air pouch
Description: For this model, sterile air was injected subcutaneously into mouse skin creating a sustained compartment (pouch) for injection of test agents (FIG. 2). At various times post-air/post-agent injection, the “air pouch” can be lavaged, and the cell and fluid content removed and characterized using standard technology (FIG. 2). After lavage, tissue reactions in the air pouch walls can also be determined using standard histopathology/immunohistochemistry (FIG. 2).
We adapted this model for the evaluation of tissue responses to infusion of insulin, excipients, factors, drugs and control solutions (e.g. saline). […] Initially, CD-1 mice received air injections (3 mL) into the dorsal site of the low back to induce the air pouch in each animal. On the following day individual mice received infusions of either saline or insulin diluent. […] Exudate was then centrifuged and a TC10 automated cell counter determined the total viable leukocyte cells. The potential inflammatory effect of insulin diluent was evaluated through the analysis on the mouse leukocyte count and exudate concentrations in the inflamed air pouch cavity.
Air was injected subcutaneously into the mouse skin creating a sustained compartment (pouch) for injection of diluent or saline (control). […] The resulting fluid was characterized for cell number (auto-hemo-cytometer), and cell type using fluorescence activated Cell sorting (FACS).

[6] = system: human mast cells; test: Mast cell viability (alamar Assay); format: cell-based
Excerpt: (§4) FIGS. 48-49 show the impact of insulin on mast cell viability and degranulation. Mast cells (MC) are key skin “sentinel” cells and are generally the first tissue cell population activated by tissue trauma triggering acute inflammatory or allergic reactions and serve a central role in chronic inflammation and wound healing. Recent results from our laboratory indicate that skin mast cells affect glucose sensor induced tissue reactions and CGM function (13).

[7] = system: human peripheral blood mononuclear cells (PBMC); test: In vitro morphology of human PBMC after exposure; format: cell-based
Description: FIG. 6. Toxicity of insulin and fibrils in vitro: Preliminary in vitro morphology of human peripheral blood mononuclear cells (PBMC) after exposure to control media, high (1.0 mg/mL), and low (0.1 mg/mL) concentrations of insulin or insulin fibrils (i.e. insulin degradation byproducts) FIG. 6). Healthy control cells [Left column] show a rounded morphology.

[8] = system: human PBMCs; test: Pro-inflammatory cytokine expression by human PBMC in vitro; format: cell-based
Description: For these in vitro studies, generally either human or mouse leukocyte cells or cell lines were cultured in vitro in the presence or absence of insulin preservatives or fibrils at various concentrations. at selected times cell viability and or cell activation has (cytokine expression) was determined. The results of these studies are presented below the general work flow for these studies are located in FIG. 61.
FIG. 7. Our in vitro studies Insulin and excipients induced expression of pro-inflammatory cytokines in PBMC in vitro. […] Similar data has been obtained with human cell lines (THP-1) and mouse macrophages (MQ). This supports our belief that I/E can induce inflammation in vivo, and that chronic infusion of IFP can cause chronic inflammation and fibrosis.
For these studies we utilized the work flow described in FIG. 61. […] At physiologic concentrations, both insulin formulation and insulin fibrils are toxic for human cells in vitro. […] The Protocol was: Hu-PBMC+insulin (72 hr)=>Assay Interleukin 8 (IL-8). […] The Protocol was Hu-PBMC+insulin (7 days)=>Assay Interferon gamma. […] The in vivo activation of these cells would cause inflammation and tissue destruction resulting in loss of effective CSII function.

[9] = system: human peripheral blood mononuclear cells (PMBC); test: Alamar Blue cell viability of human PBMC; format: cell-based
Description: For these in vitro studies, generally either human or mouse leukocyte cells or cell lines were cultured in vitro in the presence or absence of insulin preservatives or fibrils at various concentrations. at selected times cell viability and or cell activation has (cytokine expression) was determined. The results of these studies are presented below the general work flow for these studies are located in FIG. 61. […] Insulin diluent contains the formulation components of commercial insulin solutions but without the insulin protein itself. For these studies we utilized the work flow described in FIG. 61. […] At physiologic concentrations, both insulin formulation and insulin fibrils are toxic for human cells in vitro. […] The Protocol was: Hu-PBMC+insulin (72 hr)=>Assay Interleukin 8 (IL-8). […] The Protocol was Hu-PBMC+insulin (7 days)=>Assay Interferon gamma. […] The in vivo activation of these cells would cause inflammation and tissue destruction resulting in loss of effective CSII function.

[10] = system: mouse mast cells; test: Mast cell morphology/toxicity in vitro; format: cell-based; settings: physiologic concentrations
Excerpt: FIGS. 46-47 show the impact of insulin on mast cell morphology. At physiologic concentrations, both insulin formulations fibrils (not shown) are toxic to mouse mast cells in vitro.

[11] = target: Insulin degrading enzyme (IDE) (Homo sapiens, UniProt P14735); test: Insulin degradation by insulin degrading enzyme +/- anti-proteases (PAGE); format: biochemical
Description: as §1, with “This study clarifies the role of leukocytes in insulin therapy.” left out
as §2, §3

[12] = system: infusion site tissue; test: Tissue toxicity of infusion (open loop CSII mouse model); settings: open loop delivery system
Description: Combined CSII and CGM mouse model (A B, C). Non-obese diabetic (NOD) mouse implanted with Abbott Navigator glucose sensor (GS) and a short polymer infusion set for CSII. The set and sensor were placed sufficiently far apart to avoid interference. Open Loop CGM and CSII insulin infusion system cage and assembly, that allows animal ambulation and mobility during simultaneous continuous glucose sensing and insulin infusion.
Tissue Toxicity of Insulin in vivo: Infusion: The sectioned polymer catheter wall is visible and marked with a black asterisk (*) in all tissues. […] Infusion was accomplished using the open loop delivery system described in FIG. 5.

[13] = system: HMC-1 human mast cells; test: Mast cell degranulation/activation; format: cell-based; settings: in vitro
Excerpt: as §4

[14] = system: human neutrophils; test: Survival of human PMNs in serial dilutions; format: cell-based; settings: 3 days, 1:48 dilution
Excerpt: As the concentration increased, the number of cells surviving decreased for both insulin and insulin diluent.

Substance: AAT: alpha-1-antitrypsin, natural protease inhibitor
reduction of activity of insulin-degrading leukocyte proteases [1]: reduced | inhibition of insulin degradation by PMN extracts [2]: completely inhibits; also recorded: blocked | blocking of insulin degradation by trypsin [3]: blocked

degradation of insulin by elastase [4]: degraded
Substance: FITC-insulin: fluorescent insulin (FITC-insulin; Sigma, St. Louis, MO)

blocking of insulin degradation by elastase [4]: blocked
Substance: aprotinin
reduction of activity of insulin-degrading leukocyte proteases [1]: reduced | inhibition of insulin degradation by PMN extracts [2]: blocked | blocking of insulin degradation by trypsin [3]: blocked

Substance: insulin: commercial insulin formulation: complete insulin (insulin plus preservatives)
inflammation / tissue reactions in air pouch vs saline [5]: cause tissue reactions | mast cell death (alamar Assay) ([6]; increasing concentration): increasing cell death | toxicity to human mast cells ([6]; physiologic concentrations): toxic | PBMC morphology ([7]; high (1.0 mg/mL) concentration): tight contracted morphology indicative of cell death/dying | PBMC morphology ([7]; low (0.1 mg/mL) concentration): spread, expanded morphology indicative of cell injury/activation | pro-inflammatory activation of Hu-PBMC ([8]; IL-8 72 hr, Interferon gamma 7 days): cause pro-inflammatory activation | expression of pro-inflammatory cytokines including IL-6, IL-8 and TNFa ([8]; PBMC in vitro): induce expression of pro-inflammatory cytokines | cell viability (Alamar Blue assay) ([9]; 3 days of exposure to increasing concentrations): decreasing cell viability | toxicity for human cells in vitro ([9]; physiologic concentrations): toxic | toxicity to mouse mast cells [10]: toxic | degradation of insulin by elastase [4]: cleaves insulin at many sites | degradation of insulin by insulin degrading enzyme [11]: cleaves insulin into several smaller peptides | tissue reaction at infusion site surrounding catheter [12]: extensive cell damage, inflammation and cellular infiltrate | mast cell degranulation / activation [13]: activate MCs | mast cell degranulation / activation ([13]; listed as insulin formulations): cause mast cell degrandulation | number of PMN's surviving vs buffer alone [14]: significantly fewer cells surviving
